This assay deals with 10-subunit yeast RNA polymerase II (yeast) (UniProt P16370). As to the kind of experiment: 2.8 Å cocrystal structure; change in solvent-exposed surface of pol II residues, AREAIMOL, probe radius 1.4 Å.

For α-amanitin (peptide), the Δsurface area (Total) is -541 Å^2.

The values above are taken from patent US20080195324A1.
